Data reported in the DeepSol protein solubility set.

Assay: soluble on expression in E. coli; label from the status in PepcDB or PDB records
In the case of “MPLALAQLQDIGDRITDRLRPWSRSAEFWVRAADIYTSYKVAPPDPVPLLHWLVCQLRAGFVKDEEEREAMWEQQHELGAQKMYSLCSELGGLFLKEAAQILGKPDLAPMAWVKRLVTLCDNAPATPIDVVRDVVEKQFGKSFDDIFECFDVEPVGSASIAQVHRARLKLSKTDVAVKVQHPGAEKLMMVDIRNMQAFALFLQKYDINFDLYSATKEMEKQICYEFDFVREAKAMERIREFLRVTNKKKPPVIVPRVIPEMVSREVLVMEFIEGTPIMNLGNEMAKRGIDPGGKIATMAKQKILTDLTLAYGQMILKDGFFHADPHPGNILICKNTEARLLFLFLFLAMVALLDYGQVKAMPEDLRLAYANLVIAMADDDFLRTKESFREIGIETWSIADNELEELFQLSLRMFDTRLPPGVTAMSPFAEDSSLNKVGVQNCLLNGVSILFFYLKSFPEELFSVLRTIQLLRGLTVGMGLRFSCAQQWKPIAEEALLKSGRLKDY”, the “soluble on expression in E. coli” value is reported as “soluble”.
For “MPLELTQSRVQKIWVPVDHRPSLPRSCGPKLTNSPTVIVMVGLPARGKTYISKKLTRYLNWIGVPTKVFNVGEYRREAVKQYSSYNFFRPDNEEAMKVRKQCALAALRDVKSYLAKEGGQIAVFDATNTTRERRHMILHFAKENDFKAFFIESVCDDPTVVASNIMEVKISSPDYKDCNSAEAMDDFMKRISCYEASYQPLDPDKCDRDLSLIKVIDVGRRFLVNRVQDHIQSRIVYYLMNIHVQPRTIYLCRHGENEHNLQGRIGGDSGLSSRGKKFASALSKFVEEQNLKDLRVWTSQLKSTIQTAEALRLPYEQWKALNEIDAGVCEELTYEEIRDTYPEEYALREQDKYYYRYPTGESYQDLVQRLEPVIMELERQENVLVICHQAVLRCLLAYFLDKSAEEMPYLKCPLHTVLKLTPVAYGCRVESIYLNVESVCTHRERSEDAKKGPNPLMRRNSVTPLASPEPTKKPRINSFEEHVASTSAALPSCLPPEVPTQLPGQNMKGSRSSADSSRKH”, the “soluble on expression in E. coli” value was “soluble”.
With “MPLLDIRHLTIEIDTPQGLVKAVDRMSLTMNEGEIRGLVGESGSGKSLVAKAIVGICKENWRVTADRMRLGNIDLLQLTPRERRRVIARDVAMIFQEPSTCLDPSEEVGRQLIESIPFRTFEGRWWERFTWRKKQAIALLHKVGIKDHKDIMSSYPYELTDGECQKVMIAMAIAAKPKLLIADEPTNDVDPITQSQILRLLSRMNQVNNTSILLIGHDLTTITQWADRITVMYCGQSVESAETAKIVAEPKHPYTAALLKAMPDFSDWIPHKQKLQSLPGSIPPLQHLPIGCRLGPRCPYAQRQCVEVPHSRWVKNHKFSCHFPLNMESPQ” the “soluble on expression in E. coli” value was “not soluble”.
In the case of “MPLLDSFTVDHTRMNAPAVRVAKTMQTPKGDTITVFDLRFTMPNKDILSERGIHTLEHLYAGFMRNHLNGSQVEIIDISPMGCRTGFYMSLIGAPTEQQVAQAWLAAMQDVLKVESQEQIPELNEYQCGTAAMHSLEEAKAIAKNVIAAGISVNRNDELALPESMLNELKVH”, the “soluble on expression in E. coli” value is reported as “not soluble”.
For “MPLMRAIGVIRKSRGERWSREEFEELLRSAGYEILAIVEQVREEHPRYNIGPGKLEEVKKLVKELKPDKVIFANRLTPSQAYNLWKELRVDIIDKWQLVLEIFEKRAHSKEAKLQVELANLQYELPLVKEAIRRIKMGDRAGFKGMGEYQVHQYLKHIKYRMGRIKGELEKIRAEREIRRKKREEEGFVLIALAGYTNAGKSTLLNALTGEDIEAKNQMFTTLDTTTRRFKVKGKMLLVTDTVGFIDGLPPFIVEAFHSTLEEIVKADIIILVLDASEPWKEIRRKLFASLNVLRELKALDRPMIVALNKVDLISDEDAKEKELLVRETIDGRANTVGVARISAKLNQLEELYNLIEVALSRLPKFQTFEIRVKDPSKLGKVLSMVHSMGDLLEVEYSEETKIKAYIQTGLIRELTKLGVSLKRISLEHHHHHH”, the “soluble on expression in E. coli” value was “not soluble”.
With “MPLPMNSGEKVKAVGRSYNPGRPLCLEDRKKIVRLYEEGCRVSHIARLIGVTHSCVSKIMSRYRRTGSVQPRSFRATENQENDNATWQQQQLKQQQKKEKPLPFSIERF” the “soluble on expression in E. coli” value was “soluble”.
In the case of “MPLSQEESTLIERATATINSIPISEDYSVASAALSSDGRIFTGVNVYHFTGGPCAELVVLGTAAAAAAGNLTCIVAIGNENRGILSPCGRCRQVLLDLHPGIKAIVKDSDGQPTAVGIRELLPSGYVWEG”, the “soluble on expression in E. coli” value is reported as “soluble”.
In the case of “MPLTPLHQVELRLMRTVIAICEAENIDYFLIGGSLLGAIRHHGFIPWDDDIDIGMRRHDYQRFIAVANHHLDPNKFFLQTGASDPDYALSYMKLLDVNTYIEERNNVNNAFKGVFVDIFPFDKIPDDEALRRSQMLHYKLADAAILLKLNYRFVKTPLRNLITKHTPQQLAEVNRYKLEREEYMRLYEQSDSRTYKNLASQYDYEKEIMTYQELTELTTVPFEDIQVKIPSAYDTILTRMYGDYMQLPPADKRVEKHLNKLIIDNHEILLEHHHHHH”, the “soluble on expression in E. coli” value is reported as “not soluble”.
In the case of “MPLTTNTILICAGGACISAGEKSVKDAFEEELRKYGLDEVVRVIETGCMGACTLGPIAVIYPESVFYQKLTPDAAREIVEEHILKGRIVEKYLYKASEGKPVPRVHEEVPFFKKQVRIVTRNLGVIDPTKIEEYIARDGYFALAKALQMKPEDVIKEIKDSGLRGRGGAGFPTGLKWELAARQKAEKKFVVCNADEGDPGAFMDRSVLEGDPHAVIEGMAIAAYAIGAQKGFVYVRAEYPLAIERLNIALNQAREYGFLGGNIMGTDFSFDIEIRIGAGAFVCGEETALMASIEGERGQPKVKPPYPVEKGLWGYPTVINNVETLANVPWIIRNGAKEFRKYGTENSPGTKVFALAGKVKNTGLVEVPMGITLRELIYEIGGGIAGDKKLKAIQTGGPSGGCIPAEYVDTPVDFESLQKLGAIMGSGGMIVMDEDDCMVDVARFFLEFTVEESCGKCTPCREGTKKMLEILEKITSGEGTEEDIEELEKLAHVVKDTSLCGLGQTAPNPVLSTLRYFRDEYLAHVKEKRCPSKKCKALISYVIDPEKCVGCTACARVCPVQCISGQVRQPHVIDQAECVRCGSCIEVCRFGAISKVTPALPVEEAVEAAALEHHHHHH”, the “soluble on expression in E. coli” value is reported as “not soluble”.
For “MPMKEFPGLFLWKMWSLDKKKENMLKTHDPGISRLEPVTKTKPWREPLWERNWQGQHLDSRGYLAGPGREDGRNPLKLFVRATLQESLQFHRPDFISHIWERIKRLKLIVQERKLQSMLKSERDALFDIDRERQGHQNRMRPLPKRVFLAVQKNKPISKKEMIQRSKRTHAGGTVAQRLPGALWVKERLPGKGEKHPGIPVTSGSSTQTM”, the “soluble on expression in E. coli” value was “not soluble”.
For “MPMSTDVQGRALAVLNRVAQADWPDRFNLRKPFEKLLYSGSRTGFRLASERSAKQAKGPRKADPDGLFDLSFSDDQQMLVDMLEGFALEVLRPLAHDADAEASLPAELLNQALELGLTHYGVGEVHGGMAGERTTVTTALIAEALAKGDLTLAAALLVPLSAANCIRRWGSPSQQAQWLPAFVSEEGAPLTAIAVNEPSLLFDPQKLATRARRKGSHYLLSGEKCLVLRGLEASRLIVAAKTDEGPALFLVEASAKGVERRAEPAMGLKAGGTARLRLKSVKVPADNRLAAEHFDYRAFLDHASLAWCALALGTGQAALDYVIAYCNEREAFGEPISHRQGVAFMVADIAIELDAMRLMVWRACALAERGQPFQREAYLARLLCAEKAMKIGTDAVQLLGGHGFT”, the “soluble on expression in E. coli” value was “not soluble”.
In the case of “MPNDIENGTVIPPRRGVVWKIEEKELQGFAIPFPGADLSVMVRSQYYDATVRKSRPVHLSSYFQLDTRFKTYRLILWGAITRAFALASFTRRILLKYPDQCSFRMFKKSGPSAQQIAEASFTYWFFGYGYKETIPLDQQHERKVDRKVVATCKGPDLAYMAASGCVLSAALALVKDKNNLPKEGGVYTPAAAFGDSKIYDYLATFGINFHLESEYDL”, the “soluble on expression in E. coli” value is reported as “not soluble”.
For “MPNDLPFDLRPSRRTVTMGLAAGVAAALLPWRAQALDTGTARALVVEAVAQVNRTINSGKSEGQMYADFERLFARYADVPAIARTALGVAARSASRQEISAFTQAYQGYIARKYGKRFREFIGSEIKVNDARPMKSAVEVISTAYLRNENPFEVRWHVSDRSGRPAFFNIIIEGVNMLASERAEVGALLDRNRGSIPALTEQLRRASLEHHHHHH”, the “soluble on expression in E. coli” value was “not soluble”.
For “MPNKNGVGKKSPSTSKSSNNNKRREPEFRYEEKTAVHGGKTKYEEKTVVHGGKTKNVVAKKVPSKASVIVDKKASTTETTVPITVKKSLLSISTAYDRTVTEEKEKEKPKKKEKEKWSGEEASIKFVKSLGSINLKDEYDEIQKLPVQTERCKMWQSHSSRNRHNDSKCYDHNRIIVQMCKDDYINGSKINVPHFTPSIYLVQLPKMDSVDAVEEFWRVVFHEQCQTVHIIARPEELTNPAIDKLFCQESGAWLYANGFFVNTRKVEKKENAKADMFVVELLPEGCSNAVMCSVYLHTYWKPLFGPDRFGAQIRAAHQIAKNENGNSPTVIASVNGSGRNAALLTLAVVEDQLTRGKEPKISEIVRTIREQRPQSVDSYIQYVSLYMATNWLIKTKLPSGHEVVSKIKKFNEKATRSLPGSMMKTPTEEL”, the “soluble on expression in E. coli” value was “not soluble”.
For “MPNLPALPDMGLPVVTSDLTATLLPGVASPIVPGQPIEQAFSSILISMMKSDQAIEDDTENPAPVSIDALIAGMIAAPANPPQLVPSQPAPDALDTPNAPDAPAEELLSMLATSMMPNTGQPVTDEPVTFPAGGLASATPPNLPSDSGRHAADPLQTTSQAHAAPLPAELPAGNISTSTPFPAPVNSFNQAIDAANFADSGKSLPPSMTSVPVTPVAAHTSSTPLTDIAADTTANDAPAIAAEFGQPDWPEEFGRKITWLATQRMQAAELKLHPAHLGPIEISLQLSDDQRLTAQFISHHPAVREAIEANLPRLREIMAENGITLADTSVSADTPGQQAENRQGSPFRRPAAGDHSTYDSTSPQTPALQATRRSSLIDTFA”, the “soluble on expression in E. coli” value was “not soluble”.
In the case of “MPPEIMRFKERLEEAMNGESSRAFAAKCGLSDGVIRNYLSGKTYPSLDRLAQIAYATGRPIEWFIQSQSMPMVEHKNNQENKNSQPDRSTLKTKLIAIVELLEDKELHSAIELFRKKGFEALMPEIFSSDDSIQADLQGISQQTLQTAKMLESLPTDTRKKILSKYGIYEQEGLVAPSQEPQDVKKAV”, the “soluble on expression in E. coli” value is reported as “not soluble”.
With “MPPGKCLFSGVFCNMAEKQTAKRNRREEILQSLALMLESSDGSQRITTAKLAASVGVSEAALYRHFPSKTRMFDSLIEFIEDSLITRINLILKDEKDTTARLRLIVLLLLGFGERNPGLTRILTGHALMFEQDRLQGRINQLFERIEAQLRQVLREKRMREGEGYTTDETLLASQILAFCEGMLSRFVRSEFKYRPTDDFDARWPLIAAQLQ” the “soluble on expression in E. coli” value was “not soluble”.
In the case of “MPPGKNFRRRKEDSSDEEDDETKFVVRSKLDEAKELQSLRKRQHGVSIATLLVGEKLPLEAELEDDPFKLKTGGVVDMKKVKDRSRDMTVDENDLNLGTSFSAETNRRDEDADMMKYIETELKKKKGMVEAEEQKVKVKNPEDLLYELPENINVSSAKKTEEMLSNQMLSGIPEVDLGIDAKIKNIINTEEAKAKLLAEQRNKKKDSGTSFVPTNIAVNYVQHNRFYHEDSNAPQRRNREEPKARPLRVGDTEKPAPEASPPNFRKRPNNEKATDDYHYEKFKKMNRRY”, the “soluble on expression in E. coli” value is reported as “soluble”.
For “MPPLTHQSLKCVIKHLEANARIQLSQRCPSLHKTEKLIPLTIYNLELDQCSVKINNTDYSLTLTSNNFSSPFDLDQFGAIDLDEVDVDGNDVLVDNRSFKEEKNRLLRMRIEIRKMPDGVEKQEATAAVVALEQLEDNRWLRREPTSSSMMNLSINSQFIIFRGEKLCYNMKLHQAFRYLVAKLFSGRRCPIQVKKLSVECKGILRVPADLRFKVSHLEILGSGVDKIVEAFKPLIGRIQTITVNDDFNISHPIFQTALILKNPNENLFGAASASNVRVENNEQFSSLSERVVDLIRIWQSHGHKIGTIWNFSMRSQEQALDSIMYLRRQLGASFSGHKNLSQYGRSAAISLNNSDEIYVSFKQQQIKVWNLKVVVRRKRL”, the “soluble on expression in E. coli” value was “not soluble”.
With “MPQDYISYIRSKVGHDKIILNFAGGILTNDDGKVLMQLRGDKKTWTIPGGTMELGESSLETCKREFLEETGIEVEAVRLLNVYTHFEEVYPNGDAVQTIVFIYELTAVSDMAIDNFHNEETLKLQFFSHEEIAELESVSAKHRLMLEEYFSDSFAMGH” the “soluble on expression in E. coli” value was “not soluble”.
